The values that follow come from publication PMC3719173 (Nature structural & molecular biology, 2010).

T1: GST-Rev-erbα LBD (human)
T1 sequence (P20393 whole entry, looked up): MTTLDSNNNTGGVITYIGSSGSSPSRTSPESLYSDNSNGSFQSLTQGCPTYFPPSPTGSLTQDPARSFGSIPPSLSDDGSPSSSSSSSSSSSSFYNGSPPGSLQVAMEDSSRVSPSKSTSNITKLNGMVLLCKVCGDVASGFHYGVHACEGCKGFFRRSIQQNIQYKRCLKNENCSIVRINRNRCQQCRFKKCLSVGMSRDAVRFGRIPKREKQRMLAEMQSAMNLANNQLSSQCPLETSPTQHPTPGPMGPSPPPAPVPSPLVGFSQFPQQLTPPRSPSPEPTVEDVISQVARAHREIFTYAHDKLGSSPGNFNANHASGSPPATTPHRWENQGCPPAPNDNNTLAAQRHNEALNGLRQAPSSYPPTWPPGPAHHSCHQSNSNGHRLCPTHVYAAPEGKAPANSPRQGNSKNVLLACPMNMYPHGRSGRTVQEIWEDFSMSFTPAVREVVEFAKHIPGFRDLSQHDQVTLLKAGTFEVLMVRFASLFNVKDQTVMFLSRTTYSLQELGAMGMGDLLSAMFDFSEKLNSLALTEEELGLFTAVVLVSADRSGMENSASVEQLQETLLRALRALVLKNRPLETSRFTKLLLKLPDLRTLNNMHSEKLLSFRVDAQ

B1: NCoR CoRNR1 peptide (2045–2065) (peptide)
peptide: THRLITLADHICQIITQDFAR
B2: human Rev-erbα LBD (281–614 Δ324–422) (domain or fragment, UniProt P20393 281-614, looked up)
chain: PEPTVEDVISQVARAHREIFTYAHDKLGSSPGNFNANHASGSPYPHGRSGRTVQEIWEDFSMSFTPAVREVVEFAKHIPGFRDLSQHDQVTLLKAGTFEVLMVRFASLFNVKDQTVMFLSRTTYSLQELGAMGMGDLLSAMFDFSEKLNSLALTEEELGLFTAVVLVSADRSGMENSASVEQLQETLLRALRALVLKNRPLETSRFTKLLLKLPDLRTLNNMHSEKLLSFRVDAQ

One series relates to Rev-erbα LBD.
Experiment: not given
The note with it: NCoR ID1 peptide; cited from earlier work.
Take `C=CC1=C(C)c2cc3[n-]c(cc4[n-]c(cc5nc(cc1n2)C(C)=C5C=C)c(C)c4CCC(=O)O)c(CCC(=O)O)c3C.[Fe+2]` [heme]: the “Effect of heme binding on interaction of Rev-erbα LBD with ID1 peptide” value is reported as “destabilizes the interaction of Rev-erbα with the ID1 peptide”.

In a further series the target is B2. Put plainly: crystal structure.
Details: not given
Take B1: the binding result was “binds”.

Another series deals with the molecule itself. Briefly: crystal structure.
Details: not given
With B2, the binding result was “binds”.

A further series addresses T1, GST-Rev-erbα LBD (human). Briefly: FRET or BRET.
Details: not given
“NCoR (2040–2065) +1Ile2055 alanine mutant peptide (from UniProt O75376 2040-2065)” showed an IC50 of 50300 nM. In other words, the double-digit micromolar range.

In turn, “NCoR (2040–2065) +4Ile2058 alanine mutant peptide (from UniProt O75376 2040-2065)” gave an IC50 of 8100 nM. Against the preceding molecule, the IC50 is about 6.2-fold lower.

Consider “NCoR (2040–2065) +5Ile2059 alanine mutant peptide (from UniProt O75376 2040-2065)”, for which the IC50 turned out to be 19400 nM.

In turn, “NCoR (2040–2065) +9F2063A peptide (from UniProt O75376 2040-2065)” gave an IC50 of 1900 nM. This IC50 is about 10-fold lower than that of the molecule before.

For “NCoR (2040–2065) −1H2054A peptide (from UniProt O75376 2040-2065)”, the IC50 turned out to be 250 nM. Compared with the last molecule, the IC50 is about 7.6-fold lower.

Molecule “NCoR (2040–2065) −4Leu2051A peptide (from UniProt O75376 2040-2065)” came in with an IC50 of 600 nM.

The molecule “NCoR (2040–2065) −7Leu2048A peptide (from UniProt O75376 2040-2065)” had an IC50 of 570 nM.

As to “NCoR (2040–2065) −9His2046A peptide (from UniProt O75376 2040-2065)”, the half-inhibitory concentration (IC50) was 540 nM.

Molecule “control wild type NCoR ID1 (2040–2065) peptide (from UniProt O75376 2040-2065)” displayed an IC50 of 220 nM.

Broadly, the IC50 is the concentration that inhibits the measured activity by half. Lower therefore signals greater potency in that assay.
